Measured values as given in patent publication US20030040515A1, “Regulation of platelet adhesion and aggregation” (priority 2002, published 2003).

Assays:
[1] = target: T1, plasma vWF (Mus musculus, UniProt Q8CIZ8); test: Reduction in the average multimer size of vWF by TSP-1 in vivo; details: Balb c mice; 1 mg per kg intraperitoneal; plasma 24 hours later; p<0.05 vs buffer vehicle
T1 construct: from tissue; host or cells: plasma of Balb c mice (in vivo)
Description: The ability of TSP-1 to reduce the average multimer size of vWF in vivo was examined by administering TSP-1 to mice via intraperitoneal injection and measuring the consequence for the average multimer size of plasma vWF. Balb c mice (7 to 9 weeks of age) were administered either buffer vehicle (n=4) or 1 mg per kg purified human platelet TSP-1 (n=4) via 0.1 ml intraperitoneal injections. There were 2 male and 2 female mice in each group. Blood was collected by cardiac puncture into EDTA 24 hours later and the plasma was analyzed in triplicate for vWF antigen levels and collagen binding affinity.

[2] = target: T2, vWF (Homo sapiens, UniProt P04275); test: Reduction in average multimer size of vWF in TTP plasma (agarose gel, collagen binding/vWF antigen); assay type: biochemical; details: plasma from a patient with TTP
T2 construct: from tissue; host or cells: plasma of a TTP patient (vWF); human platelet concentrates (TSP-1)
Description: TTP plasma was incubated with 20 mM Hepes, 0.14M NaCl, 1 mM CaCl2, 1 mM MgCl2, pH 7.4 buffer, conditioned media of HMEC-1 cells or the Hepes buffer containing TSP-1 for 1 or 24 hours at 37° C. Aliquots of the reactions were diluted 10-fold in the Hepes buffer and assayed for collagen binding affinity and vWF antigen as described by Favaloro et al. (1991). On some occasions, aliquots of the reactions were resolved on 1% agarose gel electrophoresis (Ruggeri and Zimmerman, 1980), transferred to PVDF membrane (DuPont NEN, Boston, Mass.), blotted with 2 μg per ml of horse radish peroxidase conjugated anti-vWF polyclonal antibodies (DAKO Corporation, Carpinteria, Calif.) and visualized using chemiluminescence (DuPont NEN, Boston, Mass.).
TSP-1 is a major component of platelet α-granules which is secreted upon platelet activation and aggregation. TSP-1 was purified to homogeneity from pooled outdated human platelet concentrates (Murphy-Ullrich and Mosher. 1985; Hogg et al., 1997) and tested for vWF reductase activity. Buffers containing 0.1 mM CaCl2 were used throughout the chromatographic purification of TSP1. […] In particular, the very large multimers were lost (see bracket in FIG. 3A). […] TSP-1-mediated reduction in vWF multimer size was concentration- and time-dependent (FIG. 3B). Three different preparations of platelet TSP-1 had the same vWF reducing activity (not shown). It is noteworthy that the molar ratio of TSP-1 to vWF influenced the extent of reduction in vWF multimer size (FIG. 3B). The vWF reductase activity in endothelial cell conditioned medium is inhibited by EDTA. In accordance with this observation, chelation of Ca^2+ with EDTA ablated the vWF reductase activity of TSP-1 (not shown).

[3] = target: T3, purified human vWF (Homo sapiens, UniProt P04275+P07996); test: ELISA of salt-resistant complexes between TSP-1 and vWF; assay type: binding
T3 construct: Purified vWF from human plasma was obtained from the Baker Medical Research Institute; TSP-1 was purified to homogeneity from pooled outdated human platelet concentrates; tissue Baker Medical Research Institute, Melbourne (vWF); host or cells: human plasma (vWF); human platelet concentrates (TSP-1)
Source text: The first step in reduction of a disulfide bond is nucleophilic attack on the substrate disulfide bond by a reductant thiol which results in formation of a disulfide-linked complex between the substrate and the reductant. Release of the reductant from the complex requires nucleophilic attack on the disulfide linkage by another thiol, usually of the reductant. We reasoned that N-ethylmaleimide (NEM, Sigma, St. Louis, Mo.) might trap intermediate covalent complexes of TSP-1 and vWF by blocking the TSP-1 thiol responsible for separating TSP-1 and vWF. Maleimides react rapidly and specifically with cysteine thiols at neutral pH. This prediction was tested by measuring formation of salt-resistant complexes between TSP-1 and vWF and the effect of the thiol-blocking reagent, NEM, on complex formation.
Purified vWF from human plasma was obtained from the Baker Medical Research Institute, Melbourne and was purified according to Booth et at. (1984). The vWF (100 μl of 5 μg per ml in 0.1M NaHCO3, pH 8.3 buffer) was adsorbed to Nunc PolySorp 96 well plates overnight at 4° C. in a humid environment. […] Wells were washed three times with Hepes buffer and the peroxidase detected as described previously (Favaloro et al., 1991). […]

[4] = pH 8; cited from earlier work
[5] = target: purified vWF (Homo sapiens, UniProt P04275); test: Effect of purified reductants or thiol reagents on the average multimer size of purified vWF (agarose gel electrophoresis); assay type: biochemical; design: Purified vWF from human plasma was obtained from the Baker Medical Research Institute; tissue Baker Medical Research Institute, Melbourne; host or cells: human plasma; details: incubation of vWF with IAM or NEM alone
[6] = tested on: vWF depolymerizing activity of BAECcm; test: Inhibitor profile of the vWF depolymerizing activity of BAEC conditioned medium; assay type: biochemical; details: measured by agarose gel electrophoresis or collagen binding; BAECcm treated with agent

T1 sequence (Q8CIZ8 764-2813 limits assumed): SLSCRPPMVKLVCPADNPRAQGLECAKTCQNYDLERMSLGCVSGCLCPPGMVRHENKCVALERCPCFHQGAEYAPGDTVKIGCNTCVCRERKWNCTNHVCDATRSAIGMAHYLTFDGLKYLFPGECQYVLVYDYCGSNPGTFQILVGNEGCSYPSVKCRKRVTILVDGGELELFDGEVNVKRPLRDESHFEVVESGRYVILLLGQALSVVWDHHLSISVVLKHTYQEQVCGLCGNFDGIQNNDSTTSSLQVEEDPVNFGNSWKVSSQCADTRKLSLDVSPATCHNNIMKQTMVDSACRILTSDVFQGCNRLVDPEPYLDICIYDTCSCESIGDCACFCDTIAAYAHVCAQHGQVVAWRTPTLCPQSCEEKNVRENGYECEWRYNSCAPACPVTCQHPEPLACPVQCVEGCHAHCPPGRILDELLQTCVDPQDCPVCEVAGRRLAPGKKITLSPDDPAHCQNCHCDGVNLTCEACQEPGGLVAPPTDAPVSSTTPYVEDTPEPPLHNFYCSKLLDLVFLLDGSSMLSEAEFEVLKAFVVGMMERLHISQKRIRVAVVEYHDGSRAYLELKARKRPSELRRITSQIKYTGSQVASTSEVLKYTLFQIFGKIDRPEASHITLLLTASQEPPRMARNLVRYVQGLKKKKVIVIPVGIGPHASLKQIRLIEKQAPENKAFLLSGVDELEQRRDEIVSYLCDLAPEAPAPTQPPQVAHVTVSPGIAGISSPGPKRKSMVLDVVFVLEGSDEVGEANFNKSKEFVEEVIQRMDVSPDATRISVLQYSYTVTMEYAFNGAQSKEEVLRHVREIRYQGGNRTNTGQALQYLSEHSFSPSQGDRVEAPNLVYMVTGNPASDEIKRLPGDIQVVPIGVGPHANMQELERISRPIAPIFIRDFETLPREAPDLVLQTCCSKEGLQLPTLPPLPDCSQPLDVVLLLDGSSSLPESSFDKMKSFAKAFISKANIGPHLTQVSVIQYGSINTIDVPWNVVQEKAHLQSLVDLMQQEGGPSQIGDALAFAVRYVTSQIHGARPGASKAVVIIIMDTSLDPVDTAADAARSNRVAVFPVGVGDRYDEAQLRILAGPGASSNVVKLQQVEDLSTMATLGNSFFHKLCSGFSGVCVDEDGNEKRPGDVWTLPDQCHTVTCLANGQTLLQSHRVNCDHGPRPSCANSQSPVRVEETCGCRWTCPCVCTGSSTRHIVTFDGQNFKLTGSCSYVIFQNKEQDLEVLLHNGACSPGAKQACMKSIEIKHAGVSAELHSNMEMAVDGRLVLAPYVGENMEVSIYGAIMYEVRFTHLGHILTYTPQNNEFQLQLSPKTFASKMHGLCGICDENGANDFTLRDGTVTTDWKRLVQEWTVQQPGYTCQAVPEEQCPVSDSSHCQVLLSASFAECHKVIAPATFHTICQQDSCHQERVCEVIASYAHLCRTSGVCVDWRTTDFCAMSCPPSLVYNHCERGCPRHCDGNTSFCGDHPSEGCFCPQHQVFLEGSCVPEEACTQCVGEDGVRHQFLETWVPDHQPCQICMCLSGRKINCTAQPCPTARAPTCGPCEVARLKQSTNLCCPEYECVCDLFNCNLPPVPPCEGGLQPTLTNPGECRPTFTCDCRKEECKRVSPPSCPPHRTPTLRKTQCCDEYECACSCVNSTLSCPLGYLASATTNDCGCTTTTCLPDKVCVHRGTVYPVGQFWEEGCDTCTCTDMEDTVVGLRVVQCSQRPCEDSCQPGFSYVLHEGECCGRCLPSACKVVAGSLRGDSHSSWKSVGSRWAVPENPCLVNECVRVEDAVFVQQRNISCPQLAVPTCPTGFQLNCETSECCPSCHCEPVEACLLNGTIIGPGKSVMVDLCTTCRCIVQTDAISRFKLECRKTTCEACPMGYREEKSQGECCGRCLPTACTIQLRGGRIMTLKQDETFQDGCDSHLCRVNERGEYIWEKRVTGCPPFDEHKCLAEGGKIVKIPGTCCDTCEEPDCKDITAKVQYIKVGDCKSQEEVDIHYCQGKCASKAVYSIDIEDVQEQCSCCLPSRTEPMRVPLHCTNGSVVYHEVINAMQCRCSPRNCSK

CBA/vWFAg (average multimer size of plasma vWF) [1]	effect on average multimer size of vWF ([2]; 37° C., agarose gel electrophoresis)	effect on affinity of vWF for collagen ([2]; collagen binding relative to vWF antigen)	binding of TSP-1 to wells not coated with vWF ([3]; 10 μg per ml TSP-1, wells blocked with BSA)	Compound	second order rate constant of reaction with free thiols [4]	effect on average multimer size of vWF [5]	effect on vWF depolymerizing activity of BAECcm [6]	fold more TSP-1 bound to vWF in the presence of NEM ([3]; 5 or 20 mM NEM, TSP-1 0 to 10 μg per ml, 30 minutes at room temperature, 1M NaCl wash)
0.83±0.05	reduced the average multimer size of vWF	decrease in affinity of vWF for collagen	no binding	thrombospondin-1 [TSP-1]	–	–	–	–
–	–	–	–	CCN1C(=O)C=CC1=O [NEM, N-ethylmaleimide]	~10^4 M^−1s^−1	did not have any discernible effect	inactivated	Up to 8 fold
